Test results: patent publication US20220041738A1 (SAITAMA MEDICAL UNIVERSITY, published 2022)

T1: human ALK2-R202I on cells (human, UniProt Q04771 21-509)
T1 sequence: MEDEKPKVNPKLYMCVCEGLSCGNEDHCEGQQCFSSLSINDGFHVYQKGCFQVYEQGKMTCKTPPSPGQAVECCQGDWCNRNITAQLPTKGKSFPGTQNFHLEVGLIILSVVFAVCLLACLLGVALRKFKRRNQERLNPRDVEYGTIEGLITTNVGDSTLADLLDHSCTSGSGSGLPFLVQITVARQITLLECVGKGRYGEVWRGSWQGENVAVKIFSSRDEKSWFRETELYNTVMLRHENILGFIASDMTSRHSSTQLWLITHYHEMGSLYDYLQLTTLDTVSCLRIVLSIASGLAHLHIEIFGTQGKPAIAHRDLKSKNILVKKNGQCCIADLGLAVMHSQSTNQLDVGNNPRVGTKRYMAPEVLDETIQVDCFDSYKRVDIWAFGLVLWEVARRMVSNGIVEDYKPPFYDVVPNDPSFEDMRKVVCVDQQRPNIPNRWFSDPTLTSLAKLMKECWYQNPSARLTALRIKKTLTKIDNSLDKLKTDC

T2: human ALK2-P197_F198delinsL on cells (human, UniProt Q04771 21-509)
T2 construct: also called delP197_F198insL
T2 sequence: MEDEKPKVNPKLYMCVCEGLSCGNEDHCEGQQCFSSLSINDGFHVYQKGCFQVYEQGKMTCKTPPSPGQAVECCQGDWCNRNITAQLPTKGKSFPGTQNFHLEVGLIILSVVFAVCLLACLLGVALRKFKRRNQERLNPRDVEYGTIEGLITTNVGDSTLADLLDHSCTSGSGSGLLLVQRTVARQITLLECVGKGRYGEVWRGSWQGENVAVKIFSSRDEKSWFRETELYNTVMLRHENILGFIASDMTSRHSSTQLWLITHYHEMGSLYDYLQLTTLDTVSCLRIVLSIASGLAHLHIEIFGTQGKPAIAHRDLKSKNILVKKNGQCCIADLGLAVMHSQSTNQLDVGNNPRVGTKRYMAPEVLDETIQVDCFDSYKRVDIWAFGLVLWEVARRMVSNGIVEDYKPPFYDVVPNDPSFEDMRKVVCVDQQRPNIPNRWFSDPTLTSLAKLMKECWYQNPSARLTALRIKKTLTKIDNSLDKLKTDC

T3: human ALK2-R206H on cells (human, UniProt Q04771 21-509)
T3 sequence: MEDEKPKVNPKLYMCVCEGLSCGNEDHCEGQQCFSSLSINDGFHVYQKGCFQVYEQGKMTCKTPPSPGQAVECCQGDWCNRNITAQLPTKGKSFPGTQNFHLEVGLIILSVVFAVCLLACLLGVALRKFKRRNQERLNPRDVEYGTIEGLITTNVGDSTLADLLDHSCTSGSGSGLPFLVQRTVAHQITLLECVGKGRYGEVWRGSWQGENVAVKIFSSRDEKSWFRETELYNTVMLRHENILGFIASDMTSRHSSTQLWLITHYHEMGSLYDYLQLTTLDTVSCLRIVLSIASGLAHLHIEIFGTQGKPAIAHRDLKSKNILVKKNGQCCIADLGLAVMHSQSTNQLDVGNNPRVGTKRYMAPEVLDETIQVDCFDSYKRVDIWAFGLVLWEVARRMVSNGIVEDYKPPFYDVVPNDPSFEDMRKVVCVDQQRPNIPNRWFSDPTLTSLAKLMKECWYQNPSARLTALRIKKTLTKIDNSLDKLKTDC

T4: human ALK2-L196P on cells (human, UniProt Q04771 21-509)
T4 sequence: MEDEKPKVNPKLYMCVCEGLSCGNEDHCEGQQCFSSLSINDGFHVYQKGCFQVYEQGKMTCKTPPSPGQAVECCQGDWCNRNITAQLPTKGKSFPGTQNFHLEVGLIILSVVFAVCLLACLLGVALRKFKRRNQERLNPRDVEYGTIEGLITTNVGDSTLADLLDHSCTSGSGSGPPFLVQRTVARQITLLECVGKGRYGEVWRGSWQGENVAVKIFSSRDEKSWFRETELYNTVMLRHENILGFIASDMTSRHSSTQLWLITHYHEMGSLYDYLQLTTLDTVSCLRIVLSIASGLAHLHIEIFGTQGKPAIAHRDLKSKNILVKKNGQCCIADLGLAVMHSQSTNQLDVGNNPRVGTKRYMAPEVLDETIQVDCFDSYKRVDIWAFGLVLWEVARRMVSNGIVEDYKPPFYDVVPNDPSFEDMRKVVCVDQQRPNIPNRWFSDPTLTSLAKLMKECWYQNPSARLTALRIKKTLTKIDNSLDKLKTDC


Tests used:
Experiment in all cases: immunofluorescence (legend of FIG. 4)
[1] = molecular target: T1, human ALK2-R202I on cells
Procedure: (§1) Mouse C2C12 cells were seeded into a 96-well plate (Greiner Bio-One) at 0.5×10³ cells/well, and cultured in 15% FBS-containing DMEM medium overnight under the conditions of 5% CO₂ at 37° C. On the following day, the C2C12 cells were transfected with each of a wild-type human ALK2 cDNA integrated into pcDEF3; pcDEF3/human ALK2-L196P, pcDEF3/human ALK2-P197_F198delinsL, pcDEF3/human ALK2-R202I, pcDEF3/human ALK2-R206H, pcDEF3/human ALK2-Q207E, pcDEF3/human ALK2-R258S, pcDEF3/human ALK2-G325A, pcDEF3/human ALK2-G328E, pcDEF3/human ALK2-G328R, pcDEF3/human ALK2-G328W, pcDEF3/human ALK2-G356D, and pcDEF3/human ALK2-R375P, which are variants identified in FOP; and pcDEF3 as a control, using Lipofectamine 2000 (Invitrogen), and further cultured overnight.
(§2) The C2C12 cells were fixed with 10% neutral formalin (Nacalai Tesque, Japan) for 20 minutes at room temperature, and then blocked with 10% goat normal serum for 30 minutes. After the blocking agent was removed, purified IgG diluted to 10 μg/mL with the blocking agent was added, and the cells were left for 1 hour at room temperature. After the cells were washed with PBS three times, Goat Alexa 594-conjugated anti-rat IgG (Invitrogen) diluted to 1:1000 with the blocking agent was added, and the cells were left for 1 hour at room temperature. After the cells were washed with PBS three times, the cells were fixed with 10% neutral formalin for 15 minutes at room temperature, and nuclear-stained with DAPI (LifeTechnologies). Fluorescent signals were analyzed with a fluorescence microscope BZ-9000 (Keyence).

[2] = molecular target: T2, human ALK2-P197_F198delinsL on cells
Procedure: as §1, §2

[3] = molecular target: T3, human ALK2-R206H on cells
Procedure: as §1, §2

[4] = molecular target: T4, human ALK2-L196P on cells
Procedure: as §1, §2

Row | binding result [1] | binding result [2] | binding result [3] | binding result [4] | Binder
1 | binds | binds | binds | binds | rat anti-ALK2 monoclonal antibody A2-15A (antibody, V domains shown, Rat monoclonal IgG from a hybridoma; also called 15A6) VH: EVQLVESGGGLVQPGRSLKLSCAASGFTFSHYYMAWVRQAPTKGLEWVASITNSGGSINYRDSVKGRFTISRDNAKSTLYLQMDSLRSEDTATYYCTREGGENYGGYPPFAYWGQGTLVTVSS VL: DIVLTQSPALAVSLGQRATISCRANQGVSLSRYNLMHWYQQKPGQKPKLLIYRSSNLASGIPARFSGSGSGTDFTLTINPVQADDIATYYCQQSRESPFTFGAGTKLELKR
2 | binds | binds | binds | binds | rat anti-ALK2 monoclonal antibody A2-11E (antibody, V domains shown, Rat monoclonal IgG from a hybridoma; also called 11E2) VH: EVQLVETGGGLVQPGRSLKLSCVASGFTFSNYYMYWIRQAPGKGLEWISSINTDGGSTYYPDSVKGRFAISRDNAENTVYLQMNSLRSEDTATYYCAKSTPNIPLAYWGQGTLVTVSS VL: DIQMTQSPSLLSASVGDRVTLSCKASQNIYKYLNWFQQKLGEAPKLLIYYSNSLQTGIPSRFSGSGSGTDFTLTISSLQPEDVAIYFCFQYSSGPTFGPGTKLELKR
